From the supplement of paper PMC10724198

Columns and labels:
[1] = system: Saccharomyces cerevisiae; experiment: protein stability index of tFT-peptide fusion in wild type (PSI (0-1 scale)); higher = more stable (slower turnover); conditions: genetic background: wild type
Description: (§1)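 MPS profiling in S. cerevisiae of two library types built from selected 12-aa C-degron peptides (IN1, IN2, LN1, LN3, VN2, R1-R5, W1-W3, Atg1 and Rpa12 C-termini): saturation mutagenesis libraries and C-terminal +1 capping libraries (13 aa). Each peptide is fused to the C-terminus of a sfGFP-mCherry timer, after a GGGS linker. Cells are FACS-sorted into 8 mCherry/sfGFP bins and sequenced. PSI runs from 0 (unstable) to 1 (stable), measured once in wild type and in the das1Δ or doa10Δ background.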

[2] = system: Saccharomyces cerevisiae; experiment: protein stability index of tFT-peptide fusion in deletion strain of DAS1 (PSI (0-1 scale)); higher = more stable (slower turnover)
Description: as §1
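For protein stability index of tFT-peptide fusion in deletion strain of DAS1 in this document: PSI is a weighted mean of each variant's read distribution over the sorted stability bins, computed only for variants having over 10 reads in total.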
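For protein stability index of tFT-peptide fusion in wild type in this document: PSI derived as read-weighted mean over the 8 sorting bins, only variants exceeding 10 total reads kept, mCherry placed adjacent to the peptide and sfGFP distal.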

Sequence | protein stability index [1] | protein stability index [2]
CTSCGIKFRTNN | 0.376 | 0.688
FSMRWTWRYWVN | 0.0598 | 0.625
RLIQPLPVQFLM | 0.13 | 0.595
KKHKKGQKQKINP | 0.658 | 0.663
AHWRVGLWRGAS | 0.43 | 0.688
FSMRWTFYYWVN | 0.0564 | 0.418
ARWRVGLWRKAS | 0.1 | 0.672
CTSWGYKFRTNN | 0.137 | 0.744
RLIQPLPVIFLN | 0.138 | 0.548
KKHKKGQKQKINR | 0.644 | 0.657
KKHKKGQKQKINQ | 0.644 | 0.664
RLIQPLPVQKLN | 0.0688 | 0.809
CTSCGYKDRTNN | 0.634 | 0.702
FSMRWTFRYWVNC | 0.114 | 0.508
RLIQPNPVQFLN | 0.0748 | 0.576
FWMRWTFRYWVN | 0.0402 | 0.379
LKILRQKMNKQN | 0.246 | 0.656
KKHKKGQKKKIN | 0.523 | 0.576
PDKRHHLIKLLN | 0.113 | 0.705
FSMRWTFRYWVG | 0.422 | 0.476
RLIQPLPVQFLH | 0.301 | 0.582
PFKRNHLIKLLN | 0.0943 | 0.587
CTSNGYKFRTNN | 0.381 | 0.674
CTSCGYKFRTNNC | 0.708 | 0.673

Sequence | protein stability index [1] | protein stability index [2]
LKILRQKINHQN | 0.23 | 0.668
LVVYLSCVACPN | 0.0732 | 0.0988
VRGAVHGWRLVG | 0.155 | 0.679
LKILRQKCNHQN | 0.295 | 0.663
PSLAASFWRWVG | 0.145 | 0.706
ARWRVGLWRWAS | 0.0999 | 0.694
CTSCGEKFRTNN | 0.523 | 0.666
ARWRVGAWRGAS | 0.427 | 0.688
ARWLVGLWRGAS | 0.419 | 0.706
VRGAVSGWRLVG | 0.145 | 0.683
LKIFRQKMNHQN | 0.191 | 0.669
PDKRNHLHKLLN | 0.265 | 0.59
LKHKKGQKQKIN | 0.094 | 0.576
HSMRWTFRYWVN | 0.0543 | 0.586
PSFAASFWRVVG | 0.148 | 0.703
YSMRWTFRYWVN | 0.042 | 0.495
CTSCGYKFRTLN | 0.132 | 0.696
RLIQPLPVQFLNY | 0.433 | 0.641
PDKRNHMIKLLN | 0.0922 | 0.625
CTSCGYKTRTNN | 0.632 | 0.679
LKILRQKMNVQN | 0.226 | 0.661
LNVYLSCVACIN | 0.043 | 0.188
KKHMKGQKQKIN | 0.103 | 0.551
LKILRQCMNHQN | 0.288 | 0.686

Sequence | protein stability index [1] | protein stability index [2]
PSLAASFWRVVH | 0.448 | 0.695
PSLAASFWSVVG | 0.694 | 0.709
LVVYLSCVAAIN | 0.0144 | 0.0388
PDKRNHLIKLLE | 0.579 | 0.606
CTSCGYKVRTNN | 0.388 | 0.693
PSLAASFWRVVI | 0.263 | 0.716
CTSCGYKFRTNNT | 0.692 | 0.689
VRGAVGGIRLVG | 0.589 | 0.682
FSMRWTFRYWVNI | 0.134 | 0.527
VRGAVGGWRLVA | 0.151 | 0.677
VRGAVGGWRLVGR | 0.676 | 0.674
RLIKPLPVQFLN | 0.0432 | 0.627
LKILRQKMNAQN | 0.208 | 0.671
ARWRVQLWRGAS | 0.287 | 0.689
CTSCGYKFRPNN | 0.727 | 0.714
LKILRQKMNRQN | 0.21 | 0.68
ARWRVGLVRGAS | 0.614 | 0.663
LKALRQKMNHQN | 0.213 | 0.672
VRGAVGGWRLVD | 0.615 | 0.684
ARIRVGLWRGAS | 0.599 | 0.686
PDWRNHLIKLLN | 0.144 | 0.627
LVVYLSCVACINF | 0.024 | 0.0394
PDKFNHLIKLLN | 0.117 | 0.622
LKILRQKMNHQQ | 0.193 | 0.691

Sequence | protein stability index [1] | protein stability index [2]
LVVYLSCQACIN | 0.00888 | 0.0148
PDKRNHLIKLLNK | 0.655 | 0.67
KKFKKGQKQKIN | 0.129 | 0.575
PSLAASFNRVVG | 0.643 | 0.673
PSLAASFWRIVG | 0.143 | 0.675
ARWRVELWRGAS | 0.203 | 0.665
LVVYLSCVMCIN | 0.0111 | 0.0156
PSLAASFWRVVGA | 0.545 | 0.681
FSMRWKFRYWVN | 0.0643 | 0.577
SLIQPLPVQFLN | 0.0779 | 0.618
LQILRQKMNHQN | 0.117 | 0.701
FSMRWTFRYWLN | 0.0521 | 0.486
PSLAASFWWVVG | 0.582 | 0.718
VVVYLSCVACIN | 0.0234 | 0.0435
PDKRWHLIKLLN | 0.0628 | 0.633
PDKRNHLISLLN | 0.438 | 0.614
LKILRQKMNHQNK | 0.656 | 0.664
PSLAASFWRVHG | 0.193 | 0.686
DKILRQKMNHQN | 0.121 | 0.672
LVVYHSCVACIN | 0.181 | 0.313
PSQAASFWRVVG | 0.161 | 0.695
KKHKKGQKQKINN | 0.231 | 0.659
VRGAVGGWRSVG | 0.342 | 0.664
PDKRNHLIYLLN | 0.0898 | 0.702

Sequence | protein stability index [1] | protein stability index [2]
PSLAASFWKVVG | 0.31 | 0.674
CTSCGYKFRTNL | 0.652 | 0.703
ARWRVGLWRGASP | 0.663 | 0.672
RLIQPLPEQFLN | 0.29 | 0.592
LKILFQKMNHQN | 0.267 | 0.688
VRGAVGGWRRVG | 0.163 | 0.67
TRGAVGGWRLVG | 0.162 | 0.68
PSLAASYWRVVG | 0.157 | 0.672
RMIQPLPVQFLN | 0.045 | 0.571
LVVYLCCVACIN | 0.0154 | 0.0405
PSLAASFWFVVG | 0.658 | 0.666
VRLAVGGWRLVG | 0.131 | 0.679
CNSCGYKFRTNN | 0.193 | 0.702
CRWRVGLWRGAS | 0.276 | 0.697
VRGAVGQWRLVG | 0.147 | 0.663
FSMRWTFRYCVN | 0.088 | 0.492
HVVYLSCVACIN | 0.0139 | 0.0397
PDKRNHLIWLLN | 0.0587 | 0.705
FSMRWTFRYWMN | 0.07 | 0.485
PDKRQHLIKLLN | 0.065 | 0.562
RLIQPLPVQFLNA | 0.545 | 0.612
